{
  "source": "patent US20110190477A1",
  "about": "(G2 INFLAMMATION, published 2011)",
  "binders": {"B1": {"name": "humanized anti-C5aR antibody hAb-N (antibody, human IgG1, kappa)", "light": "DVVMTQSPLSLPVTLGEPASISCRSSQSLVHSNGNTYLHWYLQKPGQSPQLLIYKVSNRFSGVPDRFSGSGSGTDFTLKISRVEAEDVGVYFCSQSTLVPLTFGQGTKLEIKTVAAPSVFIFPPSDEQLKSGTASVVCLLNNFYPREAKVQWKVDNALQSGNSQESVTEQDSKDSTYSLSSTLTLSKADYEKHKVYACEVTHQGLSSPVTKSFNRGEC", "heavy": "not shown", "notes": "IgG1; also called antibody N"}, "B2": {"name": "humanized anti-C5aR antibody hAb-G (antibody, human IgG4 S228P, kappa)", "light": "B1 light", "heavy": "not shown", "notes": "also called antibody G"}, "B3": {"name": "humanized anti-C5aR antibody hAb-O (antibody, human IgG1, kappa)", "light": "B1 light with E17Q, Y41F, L42Q, K44R, Q50R, F92Y, Q105G", "heavy": "not shown", "notes": "IgG1; also called antibody O"}, "B4": {"name": "humanized anti-C5aR antibody hAb-A (antibody, human IgG4, kappa, V domains shown)", "VH": "QVQLVQSGAEVKKPGASVKISCKASGYAFSNSWMNWVRQAPGKGLEWMGRIYPGDGDTKYNGKFKGRVTITADESTSTAYMELSSLRSEDSAVYFCARFLLISTVTAVDYWGQGTTVTVSS", "VL": "DVVMTQSPLSLPVTLGEPASISCRSSQSLVHSNGNTYLHWYLQKPGQSPQLLIYKVSNRFSGVPDRFSGSGSGTDFTLKISRVEAEDVGVYFCSQSTLVPLTFGQGTKLEIKT", "notes": "also called antibody A"}, "B5": {"name": "humanized anti-C5aR antibody hAb-C (antibody, human IgG4, kappa)", "light": "B1 light with E17Q, Y41F, L42Q, K44R, Q50R, F92Y, Q105G", "heavy": "not shown", "notes": "also called antibody C"}, "B6": {"name": "humanized anti-C5aR antibody hAb-F (antibody, human IgG4 S228P, kappa)", "light": "B1 light with E17Q, Y41F, L42Q, K44R, Q50R, F92Y, Q105G", "heavy": "not shown", "notes": "also called antibody F"}, "B7": {"name": "humanized anti-C5aR antibody hAb-M (antibody, human IgG4, kappa)", "light": "B1 light", "heavy": "not shown", "notes": "also called antibody M"}, "B8": {"name": "human C5a (ligand, UniProt P01031 678-751, looked up)", "chain": "TLQKKIEEIAAKYKHSVVKKCCYDGACVNNDETCEQRAARISLGPRCIKAFTECCVVASQLRANISHKDMQLGR", "modifications": "tracer form: 125I-Bolton-Hunter label", "notes": "C5a is a fragment of it; also called hC5a; recombinant human C5a"}, "B9": {"name": "humanized anti-C5aR antibody hAb-S (antibody, human IgG4 S228P, kappa)", "light": "DVVMTQSPLSLPVTLGEPASISCRSSQSLVHSNGNTYLHWYLQKPGQSPQLLIYKVSNRFSGVPDRFSGSGSGTDFTLKISRVEAEDVGVYFCSQSTLVPLTFGQGTKLEIKRTVAAPSVFIFPPSDEQLKSGTASVVCLLNNFYPREAKVQWKVDNALQSGNSQESVTEQDSKDSTYSLSSTLTLSKADYEKHKVYACEVTHQGLSSPVTKSFNRGEC", "heavy": "not shown", "notes": "also called antibody S"}, "B10": {"name": "humanized anti-C5aR antibody hAb-K (antibody, human IgG4 S228P, kappa, V domains shown)", "VH": "B4 VH with I20V, K43Q, I70M, E74T, A79V, S91T, F95Y, T116L", "VL": "B4 VL with S7T, E17Q, Y41C, F92Y"}},
  "note": "Where a chain is given by its changes, count along the chain named. Values joined by “and” are separate entries in the source; they are usually repeats but may differ in a detail not shown here. Identical values can stand only once.",
  "data": [
    {"biological_target": "T1, human C5a receptor (human, UniProt P21730 1-350)", "T1 construct": "On human neutrophils, L1.2/hC5aR transfectants or neutrophils of hC5aR knock-in mice; also called hC5aR; C5aR1", "T1 chain": "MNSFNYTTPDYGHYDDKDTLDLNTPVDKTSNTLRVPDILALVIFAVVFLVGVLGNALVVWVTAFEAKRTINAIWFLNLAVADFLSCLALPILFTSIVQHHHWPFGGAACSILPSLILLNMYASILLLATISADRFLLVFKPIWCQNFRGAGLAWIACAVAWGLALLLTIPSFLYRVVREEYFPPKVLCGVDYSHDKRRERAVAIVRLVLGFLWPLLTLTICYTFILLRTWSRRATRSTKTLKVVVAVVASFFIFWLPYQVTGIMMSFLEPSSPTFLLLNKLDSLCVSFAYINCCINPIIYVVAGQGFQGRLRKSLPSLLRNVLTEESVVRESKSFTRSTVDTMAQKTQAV", "test": "saturation binding to human neutrophils at 4 C, flow cytometry", "procedure": "Human neutrophils, isolated as described above, were resuspended in dPBS and 1×10⁵ cells (in 25 μl) were dispensed into wells of a 96-well plate. An equal volume (25 μl) of 2× antibody (diluted in PBS) was added to each well. The final antibody concentration using 2-fold serial dilution ranged from 40 to 0 ug/ml (using unlabelled hAb-Q, hAb-J and 7F3). Cells and antibody were incubated for 20 min times at 4° C. After incubation, 100 μl PBS+1% BCS was added to each well and the plate centrifuged at 2,000 rpm for 3 min. […] The cells were washed once as above and resuspended in PBS+1% FCS for analysis by flow cytometry. FSC v SSC scatter was used to identify neutrophils, with the Median Fluorescence Intensity (MFI) determined for each sample. EC50 values were determined by fitting data (MFI—background vs log₁₀[antibody concentration]) to the sigmoidal dose-response (variable slope) i.e. 4-parameter logistic equation using GraphPad Prism (v4.0) software. Bₘₐₓ and KD were determined by fitting data to the one-site binding hyperbola equation.", "values": [
      {"binder": "B1", "EC50": "20 nM to 25 nM (2×) and ~3 µg/mL", "Kd": "20 nM to 25 nM (2×) and ~3 µg/mL"}
    ]},
    {"biological_target": "T1, human C5a receptor", "test": "125I-C5a displacement, L1.2/hC5aR transfectants", "procedure": "(§1) The ability of humanized Abs to inhibit ¹²⁵I-labelled C5a binding to L1.2 cells transfected with hC5aR gene or human neutrophils was tested as described below. Recombinant human C5a was obtained from Sigma Chemical Co. (St. Louis, Mo.). ¹²⁵I-Bolton-Hunter-labelled complement C5a was purchased from NEN-Dupont (Boston, Mass.), with a specific activity of 2200 Ci/mM. Briefly, L1.2/hC5aR stable transfectants were grown for several days prior to an experiment then treated overnight with 5 mM butyric acid to stimulate hC5aR expression prior to the binding assay. Human neutrophils were purified from venous blood collected from healthy volunteers. Neutrophils were separated from other leukocytes by percoll density centrifugation followed by a red blood cell lysis step. Both cell types were washed once in PBS and resuspended in binding buffer (50 mM Hepes, pH 7.5, 1 mM CaCl₂, 5 mM MgCl₂, 0.5% BSA) at a concentration of 1×10⁷/ml. Aliquots of 40 μl (4×10⁵ cells) were dispensed into 96 well microtitre plates, followed by the addition of cold competitor (antibody or human C5a). Cells and cold competitor were incubated for 15 min at room temperature before-radiolabelled C5a was added to a final concentration of 0.4 nM. The final reaction volume was 120 μl. After 60 min incubation at room temperature, the cells were washed three times with 150 μl of binding buffer containing 0.15 M NaCl. Cell pellets were then counted on a TopCount Scintillation Counter (Packard). Samples were assayed in triplicate at each of 6-8 concentrations. Each antibody was tested in at least 3 separate assays. The number of counts in each sample was expressed as a percentage of the maximum ¹²⁵I-C5a binding observed in wells with no added cold competitor after subtraction of background.\n(§2) Results of this analysis (the displacement curves) for each of the humanized antibodies compared to the mouse antibody 7F3 in human neutrophils and L1.2/hC5aR transfectants are given in FIGS. 11 and 12 respectively. […] These values were obtained using Graphpad Prism software fitting the data to the non-linear equation for one site competition.", "units": {"EC50": "nM"}, "values": [
      {"binder": "B2", "EC50": 1.53},
      {"binder": "B3", "EC50": 0.68},
      {"binder": "B1", "EC50": 1.03},
      {"binder": "B4", "EC50": 2.78},
      {"binder": "B5", "EC50": 0.9},
      {"binder": "B6", "EC50": 1.26},
      {"binder": "B7", "EC50": 0.95}
    ]},
    {"biological_target": "T1, human C5a receptor", "test": "125I-C5a displacement by cold C5a, human neutrophils", "units": {"EC50": "nM"}, "values": [
      {"binder": "B8", "EC50": 0.5}
    ]},
    {"biological_target": "T1, human C5a receptor", "test": "125I-C5a displacement, human neutrophils", "procedure": "as §1, §2", "units": {"EC50": "nM"}, "values": [
      {"binder": "B2", "EC50": 3.52},
      {"binder": "B3", "EC50": 0.48},
      {"binder": "B1", "EC50": 0.65},
      {"binder": "B9", "EC50": 2.69},
      {"binder": "B5", "EC50": 2.48},
      {"binder": "B6", "EC50": 2.55},
      {"binder": "B7", "EC50": 4.05}
    ]},
    {"biological_target": "T1, human C5a receptor", "test": "cell-based or functional assay", "units": {"Ab conc. effective at blocking C5a-induced Ca2+-flux (human neutrophils, 1 nM C5a)": "µg/mL", "Ab conc. tested but not effective at blocking Ca2+-flux (human neutrophils, 1 nM C5a)": "µg/mL"}, "values": [
      {"binder": "B2", "Ab conc. effective at blocking C5a-induced Ca2+-flux (human neutrophils, 1 nM C5a)": 30},
      {"binder": "B3", "Ab conc. effective at blocking C5a-induced Ca2+-flux (human neutrophils, 1 nM C5a)": 10},
      {"binder": "B1", "Ab conc. tested but not effective at blocking Ca2+-flux (human neutrophils, 1 nM C5a)": 0.01},
      {"binder": "B6", "Ab conc. tested but not effective at blocking Ca2+-flux (human neutrophils, 1 nM C5a)": 10},
      {"binder": "B7", "Ab conc. effective at blocking C5a-induced Ca2+-flux (human neutrophils, 1 nM C5a)": 30}
    ]},
    {"biological_target": "T1, human C5a receptor", "test": "cell-based or functional assay", "remark": "another data set of the same source", "units": {"blocking of human neutrophil migration towards C5a at 5 µg/ml antibody": "%"}, "values": [
      {"binder": "B2", "blocking of human neutrophil migration towards C5a at 5 µg/ml antibody": 84},
      {"binder": "B10", "blocking of human neutrophil migration towards C5a at 5 µg/ml antibody": 55},
      {"binder": "B5", "blocking of human neutrophil migration towards C5a at 5 µg/ml antibody": 75}
    ]}
  ]
}
